Reference: PMC13585564 (2026)

Key:
Assay in all cases: ITC
[1] = target: HSL3 ectodomain pre-incubated with CTNIP4^C58A(46–63) (Arabidopsis, C58A (stands in the printed letters))
[2] = target: HSL3 ectodomain pre-incubated with CTNIP4^C58A.C68A(46–70)_(linear) (Arabidopsis, C58A (stands in the printed letters) | C68A (stands in the printed letters))
[3] = target: HSL3–CTNIP4 complex (HSL3 ectodomain pre-incubated with CTNIP4(46–70)_(Cys–Cys)) (Arabidopsis, disulfide bond linking Cys58 and Cys68)
[4] = target: HSL3 ectodomain pre-incubated with CTNIP4^N60A(46–70)_(Cys–Cys) (Arabidopsis, N60A (stands in the printed letters), disulfide bond linking Cys58 and Cys68)
[5] = target: HSL3 ectodomain pre-incubated with CTNIP4^N60F(46–70)_(Cys–Cys) (Arabidopsis, N60F (stands in the printed letters), disulfide bond linking Cys58 and Cys68)

Row | Kd [1] [µM] | Kd [2] [µM] | Kd [3] [µM] | Kd [4] [µM] | Kd [5] [µM] | Binder
1 | 8.21 | 2.54 | 0.458 | – | – | SERK1 ectodomain (residues 24–213) (domain or fragment) ASANLEGDALHTLRVTLVDPNNVLQSWDPTLVNPCTWFHVTCNNENSVIRVDLGNAELSGHLVPELGVLKNLQYLELYSNNITGPIPSNLGNLTNLVSLDLYLNSFSGPIPESLGKLSKLRFLRLNNNSLTGSIPMSLTNITTLQVLDLSNNRLSGSVPDNGSFSLFTPISFANNLDLCGPVTSHPCPGS
2 | – | – | 0.269 | 2.05 | 15.1 | SERK3 (protein) NAEGDALSALKNSLADPNKVLQSWDATLVTPCTWFHVTCNSDNSVTRVDLGNANLSGQLVMQLGQLPNLQYLELYSNNITGTIPEQLGNLTELVSLDLYLNNLSGPIPSTLGRLKKLRFLRLNNNSLSGEIPRSLTAVLTLQVLDLSNNPLTGDIPVNGSFSLFTPISFANTKLTPLPASPPPPISPTPPSPAGS
